Numbering of substitutions follows the chain as printed. Numbers in names are those of the source.
Experiments:
[1] = target: T1, CDC2aAt protein (Arabidopsis thaliana, UniProt P24100 1-294); test: co-immunoprecipitation with the CKS1At antibody from extracts of G1/S cells, blot probed with the CDC2aAt antibody
T1 construct: Endogenous protein in extracts of partially synchronized Arabidopsis cell suspensions
Method: Arabidopsis thaliana cell suspensions were partially synchronized by the addition of aphidicolin to freshly diluted cell suspension cells. After 24 hours the drug was washed away and cells were cultivated in new medium. Samples were collected at several time points and partly used for nuclei preparation, partly for protein extraction. […] The CKS1At containing complexes were precipitated with the use of a CKS1At specific antibody (see example 9 of this application). These complexes were resolved on a SDS PAGE gel and immunoblotted. The presence of CDC2aAt as a component of the immuno-precipitated complexes was verified by probing this blot with a CDC2aAt specific antibody. This antibody detected a specific band of the correct molecular size in the extracts of the G1/S cells.

[2] = target: T2, GAL4 DNA-binding domain-CDC2aAt fusion protein encoded by pGBTCDC2A (Arabidopsis thaliana, UniProt P04386 1-147; P24100 1-294); test: yeast two-hybrid, his3 reporter, control with GAL4 activation domain only
T2 construct: Two-hybrid bait

[3] = target: T3, GAL4 DNA-binding domain only (plasmid pGBT9) (UniProt P04386 1-147); test: yeast two-hybrid, his3 reporter, control with empty pGBT9
T3 construct: Negative control of the two-hybrid assay; also called empty pGBT9 vector
Method: The need for this C-terminal domain for the interaction with CDC2At was assayed using the two-hybrid system. A gene encoding a truncated CKS1At protein was created by mutating the Tyr73 codon to a stop codon, thereby deleting the last 15 amino acids. Subsequently, this mutated gene was cloned in frame with the GAL4 activation domain, resulting in the pGADCDSQ plasmid. This vector was introduced into the HF7c yeast reporter strain, together with pGBTCDC2A or the empty pGBT9 vector. […] Therefore, this part of the CKS1At protein might be involved in the interaction with other proteins or may improve the stability of the CDK-CKS1At interaction.

[4] = target: T4, GAL4 DNA-binding domain-CDC2bAt fusion protein encoded by pGBTCDC2B (Arabidopsis thaliana, UniProt P04386 1-147; P25859 1-309); test: yeast two-hybrid, his3 reporter
T4 construct: Two-hybrid bait
Method: The recently published structure of the human CDK2 protein in complex with the human CKS1At homologue CKSHs1 helped to identify the amino-acids in the CKS/SUC1 proteins important for interaction with CDKs. Based upon this information the E61 residue of CKS1At was mutated into Q61 by PCR. The consequences of this mutation upon the binding affinity for CDC2aAt and CDC2bAt were tested with the use of a two-hybrid system utilizing the his3 gene as reporter gene. The coding region of both the wild type CKS1At and the mutated CKS1At.Q61 gene was cloned in frame with the GAL4 activation domain in the pGAD424 vector, resulting in the pGADCKS and pGADCKS.Q61 respectively. These vectors were used to cotransform the HF7c yeast cells with pGBTCDC2A or pGBTCDC2B. The pGBTCDC2A and pGBTCDC2B vectors encode for a fusion protein between the GAL4 DNA-binding domain and CDC2aAt or CDC2bAt respectively. The transformants were plated on selective medium in the absence of histidine to test the interactions between CKS1At and CKS1At.Q61 with CDC2aAt and CDC2bAt. Transformants were also streaked on medium containing 10, 20, 40, 80 or 160 mM 3-amino-1,2,4-triazole (3-AT). 3-AT acts as a competitive inhibitor of the his3 gene product.

T1 sequence (P24100 whole entry): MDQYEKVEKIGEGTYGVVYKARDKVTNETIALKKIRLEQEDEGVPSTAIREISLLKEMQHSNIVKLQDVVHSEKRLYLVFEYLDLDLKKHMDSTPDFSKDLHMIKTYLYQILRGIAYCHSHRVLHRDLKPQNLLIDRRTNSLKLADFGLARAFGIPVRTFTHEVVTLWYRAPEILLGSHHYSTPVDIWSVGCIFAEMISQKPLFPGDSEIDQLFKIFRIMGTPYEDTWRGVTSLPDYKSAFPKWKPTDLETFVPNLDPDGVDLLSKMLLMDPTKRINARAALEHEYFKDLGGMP

B1: CKS1At protein (CDK-associating subunit from Arabidopsis thaliana) (other)
chain: MGQIQYSEKYFDDTFEYRHVVLPPEVAKLLPKNRLLSENEWRAIGVQQSRGWVHYAVHRPEPHIMLFRRPLNYQQQQENQAQNMLVK
notes: also called wild type CKS1At
binding result [1]: binds

B2: GAL4 activation domain only (vector pGAD424) (other, UniProt P04386 768-881, looked up)
chain: ANFNQSGNIADSSLSFTFTNSSNGPNLITTQTNSQALSQPIASSNVHDNFMNNEITASKIDDGNNSKPLSPGWTDQTAYNAFGITTGMFNTTTMDDVYNYLFDDEDTPPNPKKE
notes: Negative control of the two-hybrid assay
binding result [2]: no binding

B3: GAL4 activation domain fused to truncated CKS1At lacking the last 15 amino acids, encoded by pGADCKSQ (other, not shown: large carriers)
chain: MGQIQYSEKYFDDTFEYRHVVLPPEVAKLLPKNRLLSENEWRAIGVQQSRGWVHYAVHRPEPHIMLFRRPLN
notes: Tyr73 codon mutated to a stop codon, deleting the last 15 amino acids; also called pGADCDSQ; truncated CKS1At protein
binding result [3]: no binding

B4: GAL4 activation domain-CKS1At.Q61 fusion protein encoded by pGADCKS.Q61 (other, not shown: large carriers; small tags and cut ends)
chain: B1 chain with E61Q
notes: Two-hybrid prey with the E61 residue of CKS1At mutated into Q61; also called CKS1At mutant E61Q
binding result [4]: no binding
